The values that follow come from paper PMC10954469, “Molecular and thermodynamic determinants of self-assembly and hetero-oligomerization in the enterobacterial thermo-osmo-regulatory protein H-NS” (Nucleic Acids Research, 2024).

The labels stand for the following.
B3: H-NS (histone-like or heat-stable nucleoid structuring protein), wild type (natural protein, uropathogenic E. coli)
chain: MSEALKILNNIRTLRAQARECTLETLEEMLEKLEVVVNERREEESAAAAEVEERTRKLQQYREMLIADGIDPNELLNSLAAVKSGTKAKRAQRPAKYSYVDENGETKTWTGQGRTPAVIKKAMDEQGKSLDDFLIKQ
notes: H-NS from uropathogenic E. coli, 137 residues as printed; Polydisperse in solution: monomers, dimers, tetramers and octamers; Expressed as H-NS:intein:CBD fusion; also called H-NS WT; wild-type H-NS; source: E. coli BL21(DE3), pTXB1 vector, purified (chitin column, intein cleavage, Superdex 200 SEC)

Series [1] deals with the molecule itself. Briefly: AUC + other: differential scanning calorimetry; parameters of the thermodynamic model that best capture the AUC and DSC observations; defined at the reference temperature TO 333 K; 300 mM ionic strength, pH 7; tetramer to dimers and octamer to tetramers (one constant KO for both steps). On the technique in general: Differential scanning calorimetry records heat flow against a reference as temperature is scanned.

Series [2] concerns the molecule itself. Briefly: AUC + other: differential scanning calorimetry; thermodynamic model set semi-quantitatively to match AUC populations (20 °C) and DSC thermograms; constant predicted by the model for 37 °C; 300 mM ionic strength, pH 7; tetramer to dimers and octamer to tetramers (one constant KO for both steps).
Series [3] concerns the molecule itself. The series can be described thus: AUC + other: differential scanning calorimetry; parameters of the thermodynamic model that best capture the AUC and DSC observations; defined at the reference temperature TD 333 K; 150 mM ionic strength, pH 7; dimer to monomers.
Series [4] concerns the molecule itself. Briefly: AUC + other: differential scanning calorimetry; thermodynamic model set semi-quantitatively to match AUC populations (20 °C) and DSC thermograms; constant predicted by the model for 13 °C; 150 mM ionic strength, pH 7; tetramer to dimers and octamer to tetramers (one constant KO for both steps).
Series [5] deals with the molecule itself. The series can be described thus: AUC + other: differential scanning calorimetry; parameters of the thermodynamic model that best capture the AUC and DSC observations; defined at the reference temperature TO 333 K; 150 mM ionic strength, pH 7; tetramer to dimers and octamer to tetramers (one constant KO for both steps).
Series [6] deals with the molecule itself. Briefly: AUC + other: differential scanning calorimetry; thermodynamic model set semi-quantitatively to match AUC populations (20 °C) and DSC thermograms; constant predicted by the model for 37 °C; 300 mM ionic strength, pH 7; dimer to monomers.
Series [7] deals with the molecule itself. Briefly: AUC + other: differential scanning calorimetry; parameters of the thermodynamic model that best capture the AUC and DSC observations; defined at the reference temperature TD 333 K; 300 mM ionic strength, pH 7; dimer to monomers.
Series [8] concerns the molecule itself. The series can be described thus: AUC + other: differential scanning calorimetry; thermodynamic model set semi-quantitatively to match AUC populations (20 °C) and DSC thermograms; constant predicted by the model for 25 °C; 300 mM ionic strength, pH 7; dimer to monomers.
Series [9] concerns the molecule itself. The series can be described thus: AUC + other: differential scanning calorimetry; thermodynamic model set semi-quantitatively to match AUC populations (20 °C) and DSC thermograms; constant predicted by the model for 13 °C; 300 mM ionic strength, pH 7; tetramer to dimers and octamer to tetramers (one constant KO for both steps).
Series [10] concerns the molecule itself. Briefly: AUC + other: differential scanning calorimetry; thermodynamic model set semi-quantitatively to match AUC populations (20 °C) and DSC thermograms; constant predicted by the model for 25 °C; 300 mM ionic strength, pH 7; tetramer to dimers and octamer to tetramers (one constant KO for both steps).
Series [11] concerns the molecule itself. The series can be described thus: AUC + other: differential scanning calorimetry; thermodynamic model set semi-quantitatively to match AUC populations (20 °C) and DSC thermograms; constant predicted by the model for 13 °C; 300 mM ionic strength, pH 7; dimer to monomers.
Series [12] deals with the molecule itself. Briefly: AUC + other: differential scanning calorimetry; thermodynamic model (octamer, tetramer, dimer, folded and unfolded monomer) whose parameters were set semi-quantitatively to match AUC populations (20 °C) and DSC thermograms; constant predicted by the model for 13 °C; 150 mM ionic strength, pH 7; dimer to monomers.
Series [13] concerns the molecule itself. The series can be described thus: AUC; sedimentation velocity, 20°C, 150 mM ionic strength, pH 7, 15-200 μM protein, c(s) analysis with SEDFIT.
Series [14] deals with the molecule itself. The series can be described thus: AUC + other: differential scanning calorimetry; thermodynamic model brought into semi-quantitative agreement with AUC populations and DSC curves; 150 mM ionic strength, pH 7; constant at 37°C; dimer to monomers.
Series [15] deals with the molecule itself. Briefly: AUC + other: differential scanning calorimetry; thermodynamic model brought into semi-quantitative agreement with AUC populations and DSC curves; 150 mM ionic strength, pH 7; constant at 37°C; tetramer to dimers and octamer to tetramers (one constant KO for both).
Series [16] concerns the molecule itself. The series can be described thus: AUC + other: differential scanning calorimetry; thermodynamic model brought into semi-quantitative agreement with AUC populations and DSC curves; 150 mM ionic strength, pH 7; constant at 25°C; dimer to monomers.
Series [17] deals with the molecule itself. Briefly: AUC + other: differential scanning calorimetry; thermodynamic model brought into semi-quantitative agreement with AUC populations and DSC curves; 150 mM ionic strength, pH 7; constant at 25°C; tetramer to dimers and octamer to tetramers (one constant KO for both).
The target of series [18] is T1, Cnu, co-repressor of the Hha family (E. coli, UniProt P64467 1-71).
T1 construct: Cnu, a member of the Hha family in E. coli; harbors a sole tryptophan (W67)
T1 sequence (looked up): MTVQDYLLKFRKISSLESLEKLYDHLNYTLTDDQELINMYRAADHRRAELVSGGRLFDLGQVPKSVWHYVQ
Briefly: other fluorescence titration; tryptophan (W67) emission of 2 μM Cnu, excitation 295 nm, with 30 nM to 50 μM tryptophan-free H-NS variant; intensity-averaged wavenumber; Hill equation, apparent (K1/2); 150 mM ionic strength, pH 7, 25°C. The note with it: both partners purified.

Series [19] addresses B3. Briefly: fluorescence polarisation; steady-state tryptophan (W109) anisotropy of 2 μM wild-type H-NS with 30 nM to 50 μM H-NSm, 150 mM ionic strength, pH 7, 13, 25 and 37°C. The note with it: both partners purified. Background: Fluorescence polarisation rises when a labelled molecule tumbles more slowly, as on binding a larger partner.
The target of series [20] is T1, Cnu, co-repressor of the Hha family. Briefly: other fluorescence titration; tryptophan (W67) emission of 2 μM Cnu, excitation 295 nm, with 30 nM to 50 μM tryptophan-free H-NS variant; intensity-averaged wavenumber; Hill equation, apparent (K1/2); 300 mM ionic strength, pH 7, 25°C. The note with it: both partners purified.

As usually defined, the stoichiometry N is the number of molecules, sites or subunits per partner or assembly.

B1: H-NS (histone-like or heat-stable nucleoid structuring protein) (natural protein, E. coli (uropathogenic))
chain: MSEALKILNNIRTLRAQARECTLETLEEMLEKLEVVVNERREEESAAAAEVEERTRKLQQYREMLIADGIDPNELLNSLAAVKSGTKAKRAQRPAKYSYVDENGETKTWTGQGRTPAVIKKAMDEQGKSLDDFLIKQ
notes: H-NS from uropathogenic E. coli, whole protein as printed in the methods; Expressed as the fusion H-NS:intein:CBD and released by cleavage with beta-mercaptoethanol; also called WT H-NS; wild-type H-NS; source: E. coli BL21(DE3), pTXB1 vector, purified (chitin column, intein-mediated cleavage, Superdex 200 SEC)
Turning to B1, the Kd in series [1] was 100 µM; in [2] it was 34.5 µM; in series [3], 1000 µM; in series [4] it was 17 µM; in series [5], 100 µM; in [6], 13.6 µM. For the same molecule, the Kd in series [7] is 100 µM; in series [8], 4.22 µM; in series [9] it was 9.39 µM; in [10] it was 18.5 µM; in [11] it was 1.19 µM; in series [12] it was 0.0238 µM.

B2: H-NS Y61E, phosphomimetic mutant (natural protein)
chain: MSEALKILNNIRTLRAQARECTLETLEEMLEKLEVVVNERREEESAAAAEVEERTRKLQQEREMLIADGIDPNELLNSLAAVKSGTKAKRAQRPAKYSYVDENGETKTWTGQGRTPAVIKKAMDEQGKSLDDFLIKQ
notes: H-NS from uropathogenic E. coli; also called Y61E mutant; source: E. coli BL21(DE3), pTXB1 vector, purified following identical protocols as H-NS
For the molecule B2, in series [13], the “stoichiometry N” value was found to be 2.
As for B3, the Kd in [14] was approximately 8 µM; in series [15], approximately 45 µM; in series [16], approximately 0.5 µM; in series [17], approximately 30 µM.

B4: Y61Em (Y61E/W109F H-NS) (natural protein)
chain: MSEALKILNNIRTLRAQARECTLETLEEMLEKLEVVVNERREEESAAAAEVEERTRKLQQEREMLIADGIDPNELLNSLAAVKSGTKAKRAQRPAKYSYVDENGETKTFTGQGRTPAVIKKAMDEQGKSLDDFLIKQ
notes: H-NS from uropathogenic E. coli; source: E. coli BL21(DE3), pTXB1 vector, purified following identical protocols as H-NS
For the molecule B4, in [18], the Kd was determined as 1.6 µM.

B5: H-NSm (W109F H-NS), tryptophan null variant of H-NS (natural protein)
chain: MSEALKILNNIRTLRAQARECTLETLEEMLEKLEVVVNERREEESAAAAEVEERTRKLQQYREMLIADGIDPNELLNSLAAVKSGTKAKRAQRPAKYSYVDENGETKTFTGQGRTPAVIKKAMDEQGKSLDDFLIKQ
notes: H-NS from uropathogenic E. coli; also called H-NS tryptophan variant; source: E. coli BL21(DE3), pTXB1 vector, purified following identical protocols as H-NS
For the molecule B5, the binding result in [19] was “binds”. The Kd was found to be 4 µM in [18] and 12 µM in [20].
